Earlier results, collected in article PMC3890242.

Target: Tyr57 (UniProt position 57, QIAAFYRQGLG)
Test: UV-vis
Conditions: unliganded D40N pKSI

Ketosteroid isomerase (pKSI) D40N (Pseudomonas putida; D40N)
pKa: 6.3 ± 0.1
